# Laboratory results as given in patent US20250243282A1 (TRUEBINDING, published 2025).
# Substitutions are numbered along the chain they refer to. Names and notes keep the numbering of the source.
# B1: 847.4D3 (antibody, V domains shown)
# VH: EVQLVESGGGLVKPGGSLKLSCAASGFTFSSYAMSWVRQTPEKRLEWVASISSGDSPYYPDSVKGRFTISRDNARNILYLQMSSLRSEDTAMYYCTRFTTVVEMDYWGQGTSVTVSS
# VL: DVVMTQTPKFLPITAEDRVTITCKASQSVSNEVAWYQQKPGQSPKLLIYYASNRYTGVPDRFTGSGSGTDFTFTIRSVQLEDLAVYFCQQHYSSPWTFGGGTKLEIK
# B2: 849.4F12 (antibody, V domains shown)
# VH: QVQLKESGPGILQPSQTLSLTCSFSGFSLSTFGMGVGWIRQPSGKGLEWLAHIWWDDDKHYNPALKSRLTISKDTSKNQVFLRIANVDTADNATYYCARIDYGDYVGFAYWGQGTLVTVSA
# VL: DILLTQSPSSMSVSLGDTVSITCHASQGINSNIGWLQQKPGKSFKGLIYHGTNLEDGVPSRFSGSGSGADYSLTISSLESEDFADYYCVQYDQFPWTFGGGTKLEIK
# B3: 849.4B2 (antibody, V domains shown)
# VH: DGKLQESGPGLVKPSQSLSLTCSVTGYSITSGYYWNWIRQFPGNKLEWMGHISYDGRNNYNPSLKNRISITRDTSKNQFFLKLNSVTTEDTATYYCAGYDFLWYFDVWGTGTTVTVSS
# VL: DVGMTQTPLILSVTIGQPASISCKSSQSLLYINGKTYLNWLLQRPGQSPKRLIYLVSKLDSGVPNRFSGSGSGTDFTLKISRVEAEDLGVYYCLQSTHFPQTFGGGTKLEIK
# B4: 846.2B11 (antibody, human IgG4 S228P, kappa, V domains shown)
# VH: QVQLQQSGPELVRPGALVKISCKASGYTFTSYDINWVKQRPGQGLEWIGWIYPGDGSTKYNEKFKGKATLTADKSSSTAYMQLSSLTSENSAVYFCAREAASNAMDYWGQGTSVTVSS
# VL: DIVLTQSPASLGVSLGQRATISCRASKSVSTSGYSYMHWYQQKPGQPPKLLIYLASILESGVPARFSGSGSGTDFTLNIHPVEEEDAAIYYCQHSRELPLTFGAGTKLELKR
# B5: 846T.4C9 (antibody, V domains shown)
# VH: EVQLQQSGPELVKPGASVKMSCKASGYSFTNYIMHWVKQKPGQGLEWIGYINPYNDGTKYNEKFKGKATLTSDKSSSTAYMELSSLTSEDSAVYYCARLLFYYAMDYWGQGTSVTVSS
# VL: B2 VL with L4M, S7T, N30S, G41R, H50Y
# B6: 847.2B8 (antibody, V domains shown)
# VH: QVQLKQSGPGLVQPSQSLSITCTVSGFSLINYGVHWVRQSPGKGLEWLGVIWSGGSTDYNAAFISRLSISKDNSKSQVFFKMNSLQADDTAIYYCARIYYYGRGYAMDYWGQGTSVTVSS
# VL: QILLSQSPAILSASPGEKVTMTCRASSSVTYMYWYQQKPGSSPQPWIYATSNLASGVPARFSGSGSGTSYSLTISRVEAEDAATYYCQQWSSNPLTFGAGTKLELK
# B7: 13G4.2F8 (antibody, human IgG4 S228P, kappa, V domains shown)
# VH: QVQLQQPGAELVKPGASVKLSCKASGYTFTSYWMHWVKQRPGQGLEWIGMIHPNSGSTDYNEKFKNKATLNVDKSSSTAYIQLSSLTSEDSAVYYCTRWGIYYYARDYWGQGTTLTVSS
# VL: DIVMTQSQKFMSTSVGERVSITCKASQNVGTNVAWYQQKAGQSLELLIYGASNRHTGVPDRFTGSGSGTDFTLTITNVQSEDMTNYFCEQYSNFPLTFGAGTKLELKR
# B8: 9H2.2H10 (antibody, human IgG4 S228P, kappa, V domains shown)
# VH: QVQLQQPGAELVGPGSSVKLSCKASGYTFTNYWIHWVKQRPLQGLEWIGNIDPSDSETHYNQKFKDKATLTVDKSSSTAYMQLSSLTSEDSAVYYCARHGYYDYWGQGTTLTVSS
# VL: DIVMTQSHKFMSTSVGDRVSITCKASQDVSTAVAWYQQKPGQSPKLLIYWASTRHTGVPDRFTGSGSGTDYTLTISSVQAEDLALYYCQQHYTTPLTFGAGTKLELKR
# B9: F846C.1F5 (antibody, human IgG4 S228P, kappa, V domains shown)
# VH: QIQLVQSGPELKKPGETVKISCKASGYTFTNYGMNWVKQAPGKGLKWMGWINTYTGEPSYADDFKGRFAFSLETSASTAYLQINNLKNEDMATYFCARWGGYDGDYYAMDYWGQGTSVTVSS
# VL: NIMMTQSPSSLAVSAGEKVTMSCKSSQSVLYSSNQKNYLAWYQQKPGQSPKLLIYWASTRESGVPDRFTGSGSGTDFTLTISSVQPEDLAVYYCHQYLSSLTFGAGTKLELKR
# B10: F846C.1B2 (antibody, human IgG4 S228P, kappa, V domains shown)
# VH: B9 VH with D103A, Y111F
# VL: B9 VL with M3W, M4L, K18M, S22T, T78S, P86A
# B11: F846C.1H12 (antibody, human IgG4 S228P, kappa, V domains shown)
# VH: B9 VH with Y32F, M91I, D103A
# VL: B9 VL with E17Q, N34S, T69S
# B12: F846TC.16B5 (antibody, human IgG4 S228P, kappa, V domains shown)
# VH: B9 VH with S59A
# VL: B9 VL with P86A
# B13: F846C.2H3 (antibody, human IgG4 S228P, kappa, V domains shown)
# VH: B9 VH
# VL: B9 VL
# B14: 847.12C4 (antibody, V domains shown)
# VH: QVQLKESGPDLVQPSQTLSLTCTVSGFSLTIYGVHWVRQPPGKGLEWVGTVAWDDKKYYNSPLQSRLSISRDTSKNQVFLKLSSLQTEDTAMYYCTMTGGPINYWGPGTSVTVSS
# VL: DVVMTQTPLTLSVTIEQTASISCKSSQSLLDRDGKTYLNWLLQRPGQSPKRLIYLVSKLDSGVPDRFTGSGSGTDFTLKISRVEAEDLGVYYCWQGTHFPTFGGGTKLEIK
# B15: 847.15D12 (antibody, V domains shown)
# VH: QVQLQQSGAELMKPGASVKISCKATGYTFTNYWIEWVKQRPGHGLEWIGEFLPGDGSSHYNEKFKGKATFTSDTSSNTAYIHLTSLTSEDSAVYYCVRDDYDSDYWAQGTTLTVSS
# VL: QAVVTQESALTTSPGETVTLTCRSSTGAVTTSNYANWVQEKPDHLFTGLIGGTNNRAPGVPARFSGSLIGDKAALTITGAQTEDEAIYFCALWYSNHLVFGGGTKLTVL
# B16: 847.15H11 (antibody, V domains shown)
# VH: EVQLQQSGAEVVKPGAPVKLSCKASGYTFNNYWLNWVKQRPGRGLEWIGRIDPSDSETHYNQKFKDKATLTVDMSSSTAYIQLSSLTSEDSAVYYCARGDYYYGTRGPMDYWGQGTSVTVSS
# VL: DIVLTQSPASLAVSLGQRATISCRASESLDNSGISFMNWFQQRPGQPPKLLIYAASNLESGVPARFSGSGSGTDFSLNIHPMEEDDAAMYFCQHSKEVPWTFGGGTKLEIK
# B17: 847.20H7 (antibody, V domains shown)
# VH: QVQLQQSGAELVRPGASVNLSCKASGYTFTNYWMNWVKQRPGQGLEWVGMIDPSDSETHYNQMFKDKATLTIDKSSSIAYMQLSSLTSEDSAVYYCARWGAMDYWGQGTSVTVSS
# VL: DIVMTQSHKIMSTSVGDRVSITCKASQDVSTTVAWFQQKPGQSPKLLLYWASTRHTGVPDRFTGSGSGTDYTLTISSVQAEDLALYYCQQHYSPPFTFGSGTKLEIK
# B18: 847.27B9 (antibody, V domains shown)
# VH: QIQLVQSGPELKKPGETVKISCKASGYTFTNYGMNWVKQAPGKGLKWMGWINTNTGEPTYAEEFKGRFAFSLETSASTAYLQINYLKNEDTATFFCARLDYDYDEDYWGQGTTLTVSS
# VL: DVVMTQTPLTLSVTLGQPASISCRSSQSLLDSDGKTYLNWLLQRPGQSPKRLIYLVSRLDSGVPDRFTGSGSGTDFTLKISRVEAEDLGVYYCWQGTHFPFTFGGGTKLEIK
# B19: 847.10C9 (antibody, V domains shown)
# VH: EVQLQQSGAELVRPGTSVKVSCKASEYAFNNYMMEWVKQRPGQGLEWIGVINPGSGATNYNENFKDKATLTADKSSTTAYMQLSSLTSDDSAVYFCTYNDLGYWGQGTLVTVSA
# VL: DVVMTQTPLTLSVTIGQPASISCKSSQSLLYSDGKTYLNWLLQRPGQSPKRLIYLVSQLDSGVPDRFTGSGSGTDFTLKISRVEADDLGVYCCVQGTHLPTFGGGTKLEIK
# B20: 847.11D6 (antibody, V domains shown)
# VH: EVKLQQSGPELMKPGTSMKISCKASGYSFTGYTMNWVKQSHGKNLEWIGLINPYNGGTNYNQKFRGKATLSVDKSSNTAYMELLSLTSEDSAVYYCARKDDYYGSSPYALDYWGQGTSVTVSS
# VL: DIVMTQSPASLAVSLGQRATISCRASESVENHVNSFMHWFQQKPGQPPKLLIYRASNLQSGIPARFSGSGSRTDFTLTINPVEADDVATYYCQQNNEVPYTFGGGTKLEIK
# B21: 847.28D1 (antibody, V domains shown)
# VH: QVQLVETGPGLVAPSQSLSITCTVSGFSLTSYGVHWIRQSPGKGLEWLGTIWAGGSTDYNSPLMSRLSISKDNSKNQVFLKMNSLQIDDTAIYYCASPPSGYDYDVFASWGQGTLVTVSA
# VL: DIRMTQSPASLSASVGETVTITCRASGNIHNYLAWYHQKQGKSPQLLVYNVKTLADGVPSRFSGSGSGTQFSLKINSLQPEDFGTYYCQHFWSIFPTFGGGTKLEIK
# B22: 847.3B3 (antibody, V domains shown)
# VH: B21 VH with V5K, T7S, S40P, T50G, S70T, N76S, I87S, I92M, S109Y
# VL: B21 VL with R3L, H37Q, N50S, V51A, N76D, I94L
# Molecular target: T1, human Gal3 protein (recombinant human Galectin-3) (human, UniProt P17931 2-250)
# T1 construct: also called hGal3; hGAL3
# Test: SPR (Carterra LSA), antibody immobilised on HC200M chip, hGal3 injected
# Wherever % inhibition of CD62L shedding is given: test concentration or dose not given here.
# Wherever % inhibition of IL-6 secretion is given: test concentration or dose not given here.
# Wherever % inhibition of TNFα secretion is given: test concentration or dose not given here.
# T1 sequence (P17931 2-250 limits assumed): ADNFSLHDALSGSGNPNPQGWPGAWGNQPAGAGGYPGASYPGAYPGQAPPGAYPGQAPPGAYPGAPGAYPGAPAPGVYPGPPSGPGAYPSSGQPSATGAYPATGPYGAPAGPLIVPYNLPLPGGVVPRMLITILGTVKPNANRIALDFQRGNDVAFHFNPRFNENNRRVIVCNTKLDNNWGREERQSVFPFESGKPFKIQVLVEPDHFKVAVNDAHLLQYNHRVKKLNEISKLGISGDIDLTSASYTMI
row,Binder,binding result
1,B1,no binding
2,B2,no binding
3,B3,no binding
4,B4,no binding
5,B5,no binding
6,B6,no binding

# Molecular target: T2, Recombinant human Gal3 (rhGal3) (TrueBinding, #QC200361) (human, UniProt P17931 2-250)
# Test: cell-based or functional assay
Binder,% inhibition of IL-6 secretion [%],% inhibition of TNFα secretion [%]
B2,1.2,-81.5
B3,-9.8,-162
B7,55.1,83.2
B8,-99.1,-39.2
B9,-16,51.7
B10,-9,43.9
B11,51.8,95.3
B12,-204,-11.4
B13,-49.1,62.8
B14,-0.7,-5.4
B15,-71.9,-153
B16,94.7,100
B17,-155,-185
B18,-84.7,70.1
B19,> -1000,-246
B20,22.7,-3.1
B21,78.6,80.5
B22,72.3,94.3
B4,-0.5,-98
B5,-38.3,-299

# Molecular target: T2, Recombinant human Gal3 (rhGal3) …
# Test: cell-based or functional assay
# Remark: another data set of the same source
row,Binder,% inhibition of CD62L shedding [%]
1,B1,7.5
2,B2,17.9
3,B3,6.2
4,B7,94.3
5,B8,67.7
6,B9,76.3
7,B10,99
8,B11,100
9,B12,84.2
10,B13,93.6
11,B14,150
12,B15,15.4
13,B16,39.3
14,B17,63.4
15,B18,87.9
16,B19,150
17,B20,83.2
18,B21,110
19,B22,43.4
20,B4,8.2
21,B5,11.2
22,B6,7
